# This sample holds only a part of the variants without activity.
# B1: TPR 5TU (parent)
# chain: GGAUCUUCUCGAUCUAACAAAAAAGACAAAUCUGCCACAAAGCUUGAGAGCAUCUUCGGAUGCAGAGGCGGCAGCCUUCGGUGGCGCGAUAGCGCCAACGUUCUCAACUAUGACACGCAAAACGCGUGCUCCGUUGAAUGGAGUUUAUCAUG
# Variants of: B1
# Assay: polymerase ribozyme fitness, log enrichment relative to wild type (log ratio); higher = more active; in vitro selection for triplet polymerase activity
# How it was run: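 The heterodimeric triplet polymerase ribozyme's subunits were each mutagenized into PCR-built libraries and transcribed. Every library was selected once, in triplicate, by annealing with a biotinylated primer, the partner subunit and triplets, incubating frozen at −7 °C, gel-excising extended constructs, capturing on streptavidin beads and running RT-PCR. Input and output libraries were Illumina-sequenced, with genotypes kept only at ≥10 input reads and ≥1 read per output. Fitness, from inverse-variance-weighted replicate averages, is the base-2 logarithm of genotype enrichment over wild-type enrichment.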
row,Variant,polymerase ribozyme fitness (log ratio)
1,U13G A24U A37G U134C,-4.14
2,U13C C57A G58A A66G U82G C116U,≤ -4.2
3,C14A A19C G58U A89U,-2.28
4,C14U A21G A24C A28U U53C C75U,≤ -4.2
5,A12U A47C A52C U56G A64C G86A A89G C99U,≤ -4.2
6,A12U U111C,-4
7,A12U C87U A120U,-0.814
8,U13C U148C,-2.48
9,C14A G58U,-1.88
10,C14A G58C,-1.28
11,C14A G46C C75G C87A A89U U90G C96U U102G G140A,≤ -4.2
12,U13G C14G A20U A37G A47C A49U C99U C149U,≤ -4.2
13,U13C C54G C95G,-3.76
14,A12U C18G C63G G83U U111G,≤ -4.2
15,A12U C14G A29C C32U U45A G80C,≤ -4.2
16,C14U A20C A39G A52G U56A C96A A121U,-4
17,C14G A40C G42C G48A G86U G92U C99A,≤ -4.2
18,A12G U45A C57G U78A G80U C103A C118G,≤ -4.2
19,U13C G50U G86C A89U C96A C116A,≤ -4.2
20,U13C U56A A60G C95U C105G U109G C132A U145G,≤ -4.2
21,U13C A22G A49U G68C C79G,≤ -4.2

row,Variant,polymerase ribozyme fitness (log ratio)
1,C14G G46U G48A A73U U77C,≤ -4.2
2,U13C G25C C76A A97U C103G C105G U139C,≤ -4.2
3,C14G A23U C54G G67U A142U U151A,≤ -4.2
4,C14G A20C A40C A89C,-4.13
5,U13G A52C C85G G86U C129G,≤ -4.2
6,U13C A21G U31C G42A A52C C95A C129G,≤ -4.2
7,U13G C32A G86C A107G C125G U135A,≤ -4.2
8,A12U C27U C38U G59U C63A C93A,-4.12
9,C14G U82A U101G,-2.29
10,U13G U111G,≤ -4.2
11,C14G U15G C54U G58U C87G C105U G143A,≤ -4.2
12,C14A A37G C93U,-4.13
13,C14A A16C U56G C57G A91C G136U,≤ -4.2
14,C14G A17G G46C G81A C96G A120G,≤ -4.2
15,C14G A47C,-2.35
16,U13G G84U,-3.13
17,A12U A20G A52U G141A,-3.17
18,C14U A21G C38G C57A C79U A138C U148C,≤ -4.2
19,U13G A21U C57U G68A A73U G92C C103A,≤ -4.2
20,A12U A40C G92A C118G,-3.87
21,C14A A39G G42A U82C G88C,≤ -4.2

row,Variant,polymerase ribozyme fitness (log ratio)
1,U13A U45A U56A G74A,≤ -4.2
2,U13C A19U U55A G83A U111G,≤ -4.2
3,C14A G48A A91U G100A U101C U134A,≤ -4.2
4,C14G A66U C69A,≤ -4.2
5,U13G A30C G50C U82A A110C G136U,≤ -4.2
6,C14G G50C C51U C79U C85A C125A,≤ -4.2
7,U13G C27G C51A G84C A142G A147C,≤ -4.2
8,C14A A40U C76U U78G G84A C103G G128A G141C,≤ -4.2
9,U13C A66U G88A A91U,≤ -4.2
10,U13C A20C A21C G58A U82A U101A,-1.36
11,C14G C36A A52G A66C C93U C125A,≤ -4.2
12,A12U A24C G46A A52G G141U A147G,≤ -4.2
13,U13C G58A,0.452
14,U13G A28U G71A G88C,≤ -4.2
15,C14U A21C G67U U77A C85G C96U U127G,≤ -4.2
16,C14G U15A C18U G25U C27G G62A C85G A138C,≤ -4.2
17,A12U C14G,-2.05
18,U13A A28U C43U G65A A106G,≤ -4.2
19,C14G A39G A49U U56A G81U,≤ -4.2
20,C14G A24C A49G G92C,≤ -4.2
21,A12U C27G C36U C131U,≤ -4.2

row,Variant,polymerase ribozyme fitness (log ratio)
1,U13G C96G A120G,-1.51
2,A12U U15A A21U U55A C76U C79A A121U,≤ -4.2
3,U13G U33G C54U,≤ -4.2
4,U13G C87G,≤ -4.2
5,A12G U53A U56A U82G A91U G117C A142G,-4.16
6,U13G C76A,-2.11
7,C14G C75A G84U,-4.14
8,C14G U55A C96U,-3.27
9,A12U A24U C43A G46A U53A U55A C57U A60G G80U C93G,≤ -4.2
10,U13G A39C G62A A107U U139A A142U,≤ -4.2
11,A12U A91U A120G U146A,-4.18
12,A12U G84C C93U G140A,≤ -4.2
13,A12U G34C G62C A73U C96U A107G C116G A147G,≤ -4.2
14,C14A C27G,≤ -4.2
15,C14G G88U G140A,≤ -4.2
16,C14A G50A C85G C96A,≤ -4.2
17,C14G C35G U82G G92A C96A G100A C116G A120G G141A U144A,≤ -4.2
18,A12U U31G A60G G83C,-1.56
19,U13G U33G U56A A60U G143U,≤ -4.2
20,C14A G34U G74C G84U G143A,≤ -4.2
